# Assay results from patent publication US20070299013.
# Tested on: pentapeptide DYDYQ (Asp695-Tyr696-Asp697-Tyr698-Gln699 of human factor Va heavy chain)
substance,measurement,value
human thrombin,"activation of factor V by thrombin (cleavage at Arg709), SDS-PAGE and immunoblot, thrombin preincubated with 100 µM peptide",the pentapeptide is a potent inhibitor of factor V activation by thrombin
